Patent publication US20220332804A1 (CSL INNOVATION, published 2022)
Changes are numbered by the printed parent chain.

Tests used:
human complement C2 = molecular target: T1, human complement C2 (human, UniProt P06681 21-752); test: SPR, mAb captured, C2 analyte, MHAs buffer, pH 7.3
T1 construct: Recombinant full-length human C2 with C-terminal 8x His tag, purified from Expi293F supernatant; also called human C2; huC2
T1 sequence: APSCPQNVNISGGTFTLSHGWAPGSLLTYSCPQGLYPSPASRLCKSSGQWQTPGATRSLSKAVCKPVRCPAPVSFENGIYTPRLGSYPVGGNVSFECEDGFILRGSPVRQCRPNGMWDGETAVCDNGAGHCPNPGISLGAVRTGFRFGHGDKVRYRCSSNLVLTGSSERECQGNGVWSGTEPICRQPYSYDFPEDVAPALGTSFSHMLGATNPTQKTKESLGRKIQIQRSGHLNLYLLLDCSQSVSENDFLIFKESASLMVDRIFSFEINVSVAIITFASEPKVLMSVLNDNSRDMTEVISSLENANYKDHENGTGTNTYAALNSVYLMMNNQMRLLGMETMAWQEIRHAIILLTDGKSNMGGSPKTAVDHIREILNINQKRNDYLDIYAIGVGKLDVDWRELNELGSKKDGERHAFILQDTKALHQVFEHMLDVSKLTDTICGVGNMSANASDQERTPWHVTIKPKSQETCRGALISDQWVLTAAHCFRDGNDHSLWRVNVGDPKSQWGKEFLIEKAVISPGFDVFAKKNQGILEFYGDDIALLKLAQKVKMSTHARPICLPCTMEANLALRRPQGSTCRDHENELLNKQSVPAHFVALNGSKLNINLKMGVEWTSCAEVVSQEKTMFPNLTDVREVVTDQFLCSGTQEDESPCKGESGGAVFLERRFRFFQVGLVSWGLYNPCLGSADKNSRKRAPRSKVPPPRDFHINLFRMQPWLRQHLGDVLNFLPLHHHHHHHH
Protocol: Surface plasmon resonance (SPR, Biacore) was used for all binding affinity analyses. In brief, goat anti-human IgG was directly immobilised onto the carboxymethyl dextran surface of CM5 sensorchips to approximately 12,000 RU using standard NHS/EDC chemistry at pH 5. The immobilised antibody surface was pre-conditioned with ten injections of polyclonal human IgG (Privigen 60 s) prepared at 1 μg/mL. Ligands (anti-C2 mAbs) were captured at the beginning of each cycle as described below. An adjacent spot or flow cell in which only Polyclonal IgG was capture was used as a reference surface. The goat anti-human IgG Fc antibody surface was regenerate in 100 mM H3PO4, injected for 45 seconds at the end of each cycle. Experiments were performed at 37° C. and the flow rate of each experiment was kept constant at 30 μL/min.
This buffer contains ammonium sulfate instead of sodium chloride.

human C2 I272A = molecular target: T2, human C2 I272A (human, UniProt P06681 21-752); test: SPR, mAb captured, C2 mutant analyte;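 note: Anti-C2 mAbs captured on goat anti-human IgG Biacore CM5 chips, alanine or serine C2 surface mutants flowed over at 37 °C, double-referenced sensorgrams fitted to a 1:1 binding model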
T2 sequence: T1 sequence with I252A

human C2 S278A = molecular target: T3, human C2 S278A (human, UniProt P06681 21-752); test: SPR, mAb captured, C2 mutant analyte;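 note: Anti-C2 mAbs captured on goat anti-human IgG Biacore CM5 chips, alanine or serine C2 surface mutants flowed over at 37 °C, double-referenced sensorgrams fitted to a 1:1 binding model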
T3 sequence: T1 sequence with S258A

B1: RF16-214 (antibody, V domains shown)
VH: EVQLLESGGGLVQPGGSLRLSCAASGFTFSWYQMMWVRQAPGKGLEWVSRIYPSGGGTAYADSVKGRFTISRDNSKNTLYLQMNSLRAEDTAVYYCARDAGYGDNWGQGTLVTVSS
VL: QSALTQPPSVSVSPGQTASITCSGDKLGEKYASWYQQKAGQSPVMVIYQDRKRPSGIPERFSGSNSGNTATLTISGTQAMDEADYYCQAWDTRAVVFGGGTKLTVLG
- Kd (human complement C2): 233 nM
- Kd (human C2 I272A): 477 nM
- Kd (human C2 S278A): 34.5 nM

B2: RF16-226 (antibody)
heavy: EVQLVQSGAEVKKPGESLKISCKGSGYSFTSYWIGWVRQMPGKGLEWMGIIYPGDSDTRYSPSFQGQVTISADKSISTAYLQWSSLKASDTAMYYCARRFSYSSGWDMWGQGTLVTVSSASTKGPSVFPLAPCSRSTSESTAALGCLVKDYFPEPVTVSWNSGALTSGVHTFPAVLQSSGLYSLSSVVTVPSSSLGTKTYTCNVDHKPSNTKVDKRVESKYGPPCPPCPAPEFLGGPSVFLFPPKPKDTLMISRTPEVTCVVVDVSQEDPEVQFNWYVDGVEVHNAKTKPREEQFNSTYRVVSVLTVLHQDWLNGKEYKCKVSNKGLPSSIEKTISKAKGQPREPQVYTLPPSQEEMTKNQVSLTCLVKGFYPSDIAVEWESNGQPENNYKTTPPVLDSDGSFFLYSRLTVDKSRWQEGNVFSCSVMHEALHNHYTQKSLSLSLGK
light: SYELTQPPSVSVSPGQTARITCSGDALTSKYVAWYQQKSGLAPLLVIYEDTRRPSGIPAKFSGSSSGSVATLTISGAHGDDEADYYCYSTDASGHQRVFGGGTKLTVLSQPKAAPSVTLFPPSSEELQANKATLVCLISDFYPGAVTVAWKADGSPVKAGVETTKPSKQSNNKYAASSYLSLTPEQWKSHRSYSCQVTHEGSTVEKTVAPTECS
- Kd (human complement C2): 44 nM
